In US20080131419A1:

Assays:
[1] = target: actin filaments (F-actin) of lily pollen tubes
[2] = target: actin filaments (F-actin) of lily pollen tubes (lily (Lilium grandiflorum / Lilium longiflorum cv. Osnat)); assay: cell-based or functional assay

B1: Aspergillus niger B1 extracellular RNase (RNase B1) (protein)
chain: TIDTCSSDSPLSCQTDNEASCCFNSPGGSLLQTQFWDYDPSDGPSGSWTIHGLWPDNCDGTYQEYCDESREYSNITSILEAQNRTELLSYMKEYWPDYEGADEDESFWEHEWNKHGTCINTIEPSCYTDYYAQEEVGDFFQQVVDLFKTLDSYTALSDAGITPSEDATYKLSDIEDALAAIHDGYPPYVGCEDGALSQLYYYFNVKGSAIGGTYVASERLEDSNCKDSGIKYPPKYSSSKKIYGSSL
actin filament distribution in pollen tubes (TRITC-phalloidin staining) [1]: in RNase-treated pollen tubes masses of F-actin were accumulated at the tip cell wall | lily pollen tube length in vitro, RNase B1 100 units/ml (16 ug/ml), 2 h (control about 300 um) [1]: reached only 160 µm in length | lily pollen tube length in vitro, autoclaved RNase B1 (control about 300 um) [1]: Boiling or autoclaving the RNase yielded pollen tubes of 130 and 170 µm in length, respectively | lily pollen tube length in vitro, boiled RNase B1 (control about 300 um) [1]: Boiling or autoclaving the RNase yielded pollen tubes of 130 and 170 µm in length, respectively | inhibition of lily pollen tube elongation, 1 uM enzymatically heat-inactivated RNase B1 (EI-RNase B1) [2]: 55%
